Measurements reported in IntAct's records for PubMed 35512704.

B1: Mothers against decapentaplegic homolog 4 (Homo sapiens), Q13485 (parent)
chain: MDNMSITNTPTSNDACLSIVHSLMCHRQGGESETFAKRAIESLVKKLKEKKDELDSLITAITTNGAHPSKCVTIQRTLDGRLQVAGRKGFPHVIYARLWRWPDLHKNELKHVKYCQYAFDLKCDSVCVNPYHYERVVSPGIDLSGLTLQSNAPSSMMVKDEYVHDFEGQPSLSTEGHSIQTIQHPPSNRASTETYSTPALLAPSESNATSTANFPNIPVASTSQPASILGGSHSEGLLQIASGPQPGQQQNGFTGQPATYHHNSTTTWTGSRTAPYTPNLPHHQNGHLQHHPPMPPHPGHYWPVHNELAFQPPISNHPAPEYWCSIAYFEMDVQVGETFKVPSSCPIVTVDGYVDPSGGDRFCLGQLSNVHRTEAIERARLHIGKGVQLECKGEGDVWVRCLSDHAVFVQSYYLDREAGRAPGDAVHKIYPSAYIKVFDLRQCHRQMQQQAATAQAAAAAQAAAVAGNIPGPGSVGGIAPAISLSAAAGIGVDDLRRLCILRMSFVKGWGPDYPRQSIKETPCWIEIHLHRALQLLDEVLHTMPIADPQPLD

Variants of: B1
Settings: with rnf43_human RNF43, Q68DV7

With D351H as the variant, how does the “effect of a mutation on the interaction” value read?
Its value is “with no effect”.

Variants of: B1
Settings: with ros1_human ROS1, P08922

D351H was tested. Which “effect of a mutation on the interaction” value did it give?
Its value is “with no effect”.

Variants of: B1
Settings: with rl5_human RPL5, P46777

D351H was tested. Which “effect of a mutation on the interaction” value did it give?
The value was “with no effect”.

Variants of: B1
Settings: with runx1_human RUNX1, Q01196

Which “effect of a mutation on the interaction” value does the source give for D351H here?
The value was “with no effect”.

Variants of: B1
Settings: with ruvb1_human RUVBL1, Q9Y265

For D351H, which “effect of a mutation on the interaction” value is on record?
The value was “with no effect”.

Variants of: B1
Settings: with sdha_human SDHA

For D351H, which “effect of a mutation on the interaction” value is on record?
Its value is “with no effect”.

Variants of: B1
Settings: with sf3b1_human SF3B1, O75533

D351H was tested. Which “effect of a mutation on the interaction” value did it give?
Its value is “with no effect”.

Variants of: B1
Settings: with skp2_human SKP2, Q13309

How did the “effect of a mutation on the interaction” value turn out when D351H was run?
Its value is “with no effect”.

Variants of: B1
Settings: with smad1_human SMAD1, Q15797

With D351H as the variant, how does the “effect of a mutation on the interaction” value read?
The value was “with no effect”.

Variants of: B1
Settings: with smad2_human SMAD2, Q15796

For D351H, which “effect of a mutation on the interaction” value is on record?
The value was “with no effect”.

Variants of: B1
Settings: with smad3_human SMAD3, P84022

With D351H as the variant, how does the “effect of a mutation on the interaction” value read?
The value was “with no effect”.

Variants of: B1
Settings: with smca4_human SMARCA4, P51532

Which “effect of a mutation on the interaction” value does the source give for D351H here?
The value was “with no effect”.

Variants of: B1
Settings: with snf5_human SMARCB1, Q12824

With D351H as the variant, how does the “effect of a mutation on the interaction” value read?
The value was “with no effect”.

Variants of: B1
Settings: with smo_human SMO

D351H was tested. Which “effect of a mutation on the interaction” value did it give?
The value was “with no effect”.

Variants of: B1
Settings: with sox10_human SOX10, P56693

With D351H as the variant, how does the “effect of a mutation on the interaction” value read?
The value was “with no effect”.

Variants of: B1
Settings: with sox2_human SOX2, P48431

How did the “effect of a mutation on the interaction” value turn out when D351H was run?
The value was “with no effect”.

Variants of: B1
Settings: with sox3_human SOX3, P41225

With D351H as the variant, how does the “effect of a mutation on the interaction” value read?
The value was “with no effect”.

Variants of: B1
Settings: with sox4_human SOX4, Q06945

D351H was tested. Which “effect of a mutation on the interaction” value did it give?
The value was “with no effect”.

Variants of: B1
Settings: with sox9_human SOX9, P48436

Which “effect of a mutation on the interaction” value does the source give for D351H here?
Its value is “with no effect”.

Variants of: B1
Settings: with spop_human SPOP

With D351H as the variant, how does the “effect of a mutation on the interaction” value read?
The value was “with no effect”.

Variants of: B1
Settings: with src_human SRC

Which “effect of a mutation on the interaction” value does the source give for D351H here?
The value was “with no effect”.

Variants of: B1
Settings: with stat3_human STAT3, P40763

With D351H as the variant, how does the “effect of a mutation on the interaction” value read?
Its value is “with no effect”.

Variants of: B1
Settings: with stk38_human STK38, Q15208

D351H was tested. Which “effect of a mutation on the interaction” value did it give?
Its value is “with no effect”.

Variants of: B1
Settings: with ksyk_human SYK

D351H was tested. Which “effect of a mutation on the interaction” value did it give?
The value was “with no effect”.

Variants of: B1
Settings: with eloc_human ELOC

Which “effect of a mutation on the interaction” value does the source give for D351H here?
Its value is “with no effect”.

Variants of: B1
Settings: with tfe2_human TCF3, P15923

Which “effect of a mutation on the interaction” value does the source give for D351H here?
The value was “with no effect”.

Variants of: B1
Settings: with tead1_human TEAD1, P28347

With D351H as the variant, how does the “effect of a mutation on the interaction” value read?
The value was “with no effect”.

Variants of: B1
Settings: with tead2_human TEAD2, Q15562

D351H was tested. Which “effect of a mutation on the interaction” value did it give?
The value was “with no effect”.

Variants of: B1
Settings: with tead3_human TEAD3, Q99594

D351H was tested. Which “effect of a mutation on the interaction” value did it give?
The value was “with no effect”.

Variants of: B1
Settings: with tert_human TERT

With D351H as the variant, how does the “effect of a mutation on the interaction” value read?
Its value is “with no effect”.

Variants of: B1
Settings: with tgfr2_human TGFBR2, P37173

Which “effect of a mutation on the interaction” value does the source give for D351H here?
Its value is “with no effect”.

Variants of: B1
Settings: with tnr14_human TNFRSF14, Q92956

D351H was tested. Which “effect of a mutation on the interaction” value did it give?
Its value is “with no effect”.

Variants of: B1
Settings: with tpx2_human TPX2, Q9ULW0

Which “effect of a mutation on the interaction” value does the source give for D351H here?
Its value is “with no effect”.

Variants of: B1
Settings: with tsc2_human TSC2, P49815

With D351H as the variant, how does the “effect of a mutation on the interaction” value read?
Its value is “with no effect”.

Variants of: B1
Settings: with tshr_human TSHR

With D351H as the variant, how does the “effect of a mutation on the interaction” value read?
Its value is “with no effect”.

Variants of: B1
Settings: with vegfa_human VEGFA

For D351H, which “effect of a mutation on the interaction” value is on record?
The value was “with no effect”.

Variants of: B1
Settings: with vhl_human VHL

Which “effect of a mutation on the interaction” value does the source give for D351H here?
Its value is “with no effect”.

Variants of: B1
Settings: with wt1_human WT1, P19544

Which “effect of a mutation on the interaction” value does the source give for D351H here?
The value was “with no effect”.

Variants of: B1
Settings: with wwtr1_human WWTR1, Q9GZV5

With D351H as the variant, how does the “effect of a mutation on the interaction” value read?
The value was “with no effect”.

Variants of: B1
Settings: with xpo1_human XPO1, O14980

How did the “effect of a mutation on the interaction” value turn out when D351H was run?
Its value is “with no effect”.

Variants of: B1
Settings: with 1433b_human YWHAB

D351H was tested. Which “effect of a mutation on the interaction” value did it give?
The value was “with no effect”.

Variants of: B1
Settings: with 1433e_human YWHAE

D351H was tested. Which “effect of a mutation on the interaction” value did it give?
The value was “with no effect”.

Variants of: B1
Settings: with 1433z_human YWHAZ

For D351H, which “effect of a mutation on the interaction” value is on record?
Its value is “with no effect”.

Variants of: B1
Settings: with arc1a_human ARPC1A

With D351H as the variant, how does the “effect of a mutation on the interaction” value read?
The value was “causing an interaction”.
